# Measurements as given in paper PMC5639367 (2017).
# Ends that are not written are not given here.
# Target: VBC ternary complex (pVHL, Elongin B, Elongin C) (UniProt P40337 1-213; Q15370 1-104; Q15369 17-112)
# Assay: BLI
row,Binder,Kd [mM]
1,"MSAKPRVV-NH2 [8-mer Cul2 peptide, Leu3 replaced by alanine]",2.9
2,"MSLKPRAV-NH2 [8-mer Cul2 peptide, Val7 replaced by alanine]",2.1
3,"MSLKPRVA-NH2 [8-mer Cul2 peptide, Val8 replaced by alanine]",0.5
4,"ASLKPRVV-NH2 [8-mer Cul2 peptide, Met1 replaced by alanine]",2.8
5,"MALKPRVV-NH2 [8-mer Cul2 peptide, Ser2 replaced by alanine]",7.1
